In test [1] the target is T1, virus-like particles (VLPs) of BK polyomavirus VP-1 protein, serotype IV (BK virus (BKPyV), serotype IV, UniProt P14996 1-362).
T1 construct: native VLPs; also called VLP IV
T1 chain: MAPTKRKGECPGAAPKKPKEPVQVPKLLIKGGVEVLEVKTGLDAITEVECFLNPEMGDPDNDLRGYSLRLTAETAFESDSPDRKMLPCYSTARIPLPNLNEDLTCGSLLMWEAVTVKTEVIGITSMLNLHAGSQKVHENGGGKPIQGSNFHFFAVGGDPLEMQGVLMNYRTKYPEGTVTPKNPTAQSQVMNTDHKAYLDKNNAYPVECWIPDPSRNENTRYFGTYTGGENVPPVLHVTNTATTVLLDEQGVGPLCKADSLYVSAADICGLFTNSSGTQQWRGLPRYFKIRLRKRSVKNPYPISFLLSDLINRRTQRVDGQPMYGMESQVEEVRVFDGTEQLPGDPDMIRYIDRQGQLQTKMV
The test is described as follows: ELISA on coated VLP; supernatant 1/40. In general terms: An ELISA detects its analyte on a solid surface through an enzyme-linked reagent.
Procedure: (§1) To do this, the VLPs produced were deposited at a concentration of 1 μg/mL in PBS and incubated overnight at +4° C. The wells were then blocked for 1 h at +37° C. with a PBS/FCS (phosphate-buffered saline/fetal calf serum) mixture. After dilution in a dilution buffer containing FCS, PBS and Tween® 20, the various hybridoma culture supernatants were added for 1 h at +37° C. The wells were washed four times in a row with Wash Buffer and a secondary anti-mouse antibody coupled to peroxidase was added to the 1:2000 dilution for 1 h at +37° C. The wells were washed four more times and the substrate (OPD (ortho phenylene diamine)+H₂O₂) was added for 30 min at room temperature. A stop solution (H₂SO₄ 4N) was then added and each well was read by measuring the absorbance at 492 nm with a spectrophotometer. The value obtained for the average of the control wells (PBS in the first step) is subtracted from the optical density values obtained for each well.

Test [2] has as its target T2, virus-like particles (VLPs) of BK polyomavirus VP-1 protein, serotype Ia (BK virus (BKPyV), serotype Ia, UniProt P03088 1-361).
T2 construct: self-assembled native VLPs coated on ELISA plates; also called VLP Ia; BKV VP-1, serotype Ia
T2 chain: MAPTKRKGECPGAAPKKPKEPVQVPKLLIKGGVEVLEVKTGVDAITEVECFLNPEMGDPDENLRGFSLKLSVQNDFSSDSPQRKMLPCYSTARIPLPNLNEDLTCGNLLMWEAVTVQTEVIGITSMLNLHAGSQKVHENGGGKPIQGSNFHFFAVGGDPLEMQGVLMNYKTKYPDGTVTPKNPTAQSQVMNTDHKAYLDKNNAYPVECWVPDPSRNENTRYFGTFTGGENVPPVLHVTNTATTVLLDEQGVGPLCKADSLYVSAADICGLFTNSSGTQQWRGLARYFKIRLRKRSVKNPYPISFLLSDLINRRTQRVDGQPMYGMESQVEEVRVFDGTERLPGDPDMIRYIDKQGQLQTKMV
Put plainly: ELISA on coated VLP; supernatant 1/2 560.
Procedure: as §1

The target of test [3] is T3, virus-like particles (VLPs) of BK polyomavirus VP-1 protein, serotype Ib2 (BK virus (BKPyV), serotype Ib2, PA …, UniProt P03088 1-362).
T3 construct: native VLPs; also the immunogen; also called VLP Ib2; BK Ib2
T3 chain: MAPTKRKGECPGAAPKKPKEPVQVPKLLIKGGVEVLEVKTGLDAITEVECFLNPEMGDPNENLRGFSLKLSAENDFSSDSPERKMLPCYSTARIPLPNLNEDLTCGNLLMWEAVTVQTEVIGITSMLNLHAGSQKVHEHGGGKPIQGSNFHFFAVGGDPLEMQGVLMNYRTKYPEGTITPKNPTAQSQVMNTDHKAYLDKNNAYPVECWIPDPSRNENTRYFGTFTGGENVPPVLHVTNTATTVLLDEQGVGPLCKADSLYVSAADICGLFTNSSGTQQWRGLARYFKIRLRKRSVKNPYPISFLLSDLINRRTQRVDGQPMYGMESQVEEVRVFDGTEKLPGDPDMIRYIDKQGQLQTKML
Put plainly: ELISA on coated VLP; supernatant 1/2 560.
Procedure: as §1

Test [4] has as its target T4, virus-like particles (VLPs) of BK polyomavirus VP-1 protein, serotype II (BK virus (BKPyV), serotype II, UniProt P14996 1-362).
T4 construct: native VLPs; also called VLP II
T4 chain: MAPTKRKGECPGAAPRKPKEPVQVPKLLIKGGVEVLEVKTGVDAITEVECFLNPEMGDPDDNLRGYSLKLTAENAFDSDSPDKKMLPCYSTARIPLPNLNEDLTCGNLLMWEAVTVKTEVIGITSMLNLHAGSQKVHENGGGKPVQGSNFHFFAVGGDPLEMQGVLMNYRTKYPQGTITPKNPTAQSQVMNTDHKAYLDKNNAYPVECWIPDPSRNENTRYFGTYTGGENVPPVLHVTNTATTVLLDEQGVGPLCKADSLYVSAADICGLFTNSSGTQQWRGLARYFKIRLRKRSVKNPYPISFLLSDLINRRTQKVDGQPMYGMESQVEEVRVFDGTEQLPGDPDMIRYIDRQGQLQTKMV
Put plainly: ELISA on coated VLP; supernatant 1/2 560.
Procedure: as §1

Test [5] has as its target T1, virus-like particles (VLPs) of BK …. Put plainly: ELISA on coated VLP; supernatant 1/2 560.
Procedure: as §1
Test [6] concerns the target T2, virus-like particles (VLPs) of BK …. Put plainly: ELISA on coated VLP; supernatant 1/5 120.
Procedure: as §1
Test [7] addresses T3, virus-like particles (VLPs) of BK …. The test is described as follows: ELISA on coated VLP; supernatant 1/5 120.
Procedure: as §1
Test [8] concerns the target T4, virus-like particles (VLPs) of BK …. The test is described as follows: ELISA on coated VLP; supernatant 1/5 120.
Procedure: as §1
For test [9], the target named is T1, virus-like particles (VLPs) of BK …. The test is described as follows: ELISA on coated VLP; supernatant 1/5 120.
Procedure: as §1
For test [10], the target named is T2, virus-like particles (VLPs) of BK …. Put plainly: ELISA on coated VLP; supernatant 1/10 240.
Procedure: as §1
For test [11], the target named is T3, virus-like particles (VLPs) of BK …. The test is described as follows: ELISA on coated VLP; supernatant 1/10 240.
Procedure: as §1
The target of test [12] is T4, virus-like particles (VLPs) of BK …. Put plainly: ELISA on coated VLP; supernatant 1/10 240.
Procedure: as §1
In test [13] the target is T1, virus-like particles (VLPs) of BK …. Put plainly: ELISA on coated VLP; supernatant 1/10 240.
Procedure: as §1

B1: monoclonal antibody ‘F6’ secreted by clone BK6A2F6 (antibody)
heavy: EVQLQQSGPELVKPGASVKISCKASGYSFTGYFMNWVKQSHGKSLEWIGRINPYNGDTFYNQKFKGKATLTVDKSSSTAHMELLSLTSEDSAVYYCGSYYYGDYFDYWGQGTTLTVSSAKTTPPSVYPLAPGSAAQTNSMVTLGCLVKGYFPEPVTVTWNSGSLSSGVHTFPAVLQSDLYTLSSSVTVPSSTWPSETVTCNVAHPASSTKVDKKIVPRDCGCKPCICTVPEVSSVFIFPPKPKDVLTITLTPKVTCVVVDISKDDPEVQFSWFVDDVEVHTAQTQPREEQFNSTFRSVSELPIMHQDWLNGKEFKCRVNSAAFPAPIEKTISKTKGRPKAPQVYTIPPPKEQMAKDKVSLTCMITDFFPEDITVEWQWNGQPAENYKNTQPIMDTDGSYFVYSKLNVQKSNWEAGNTFTCSVLHEGLHNHHTEKSLSHSPGK
light: […]
With B1, the “OD 492 nm” value is 3.19 OD in [1]; 1.06 OD in [2]; 0.09 OD in test [3]; 0.07 OD in test [4]; 1.28 OD in test [5]; 0.57 OD in test [6]. Also, the “OD 492 nm” value in test [7] came to 0.08 OD; in [8], 0.07 OD; in [9], 0.77 OD; in test [10], 0.19 OD; in test [11], 0.08 OD; in test [12] it was 0.08 OD. The “OD 492 nm” value in test [13] worked out at 0.48 OD.

B2: monoclonal antibody ‘H6’ secreted by clone BK6A2H6 (antibody, V domains shown)
VH: EVQLQQSGPELVKPGASVKISCKASGYSFTGYFMNWVKQSHGKSLEWIGRINPYNGDTFYNQKFKGKATLTVDKSSSTAHMELLSLTSEDSAVYYCGSYYYGDYFDYWGQGTTLTVSS
VL: SIVMTQIPKFLLVSEGDRVTITCKASQSVSNDVAWYQQKSGQSPKLLIYYASNRYTGVPDRFTGSGYGTDFTFTISTVQAEDLAVYFCQQDYSSPLTFGAGTKLELKR
In the case of B2, the “OD 492 nm” value in test [1] was found to be 3.38 OD; in test [2] it was 0.46 OD; in [3], 0.1 OD; in test [4] it was 0.06 OD; in test [5], 0.54 OD; in [6] it was 0.86 OD. In addition, the “OD 492 nm” value in test [7] was 0.09 OD; in test [8], 0.05 OD; in test [9] it was 0.26 OD; in test [10], 0.22 OD; in test [11], 0.06 OD; in test [12] it was 0.06 OD. The “OD 492 nm” value in test [13] amounted to 0.17 OD.
